In IntAct's records for PubMed 22036564:

Target: efna1_mouse Efna1 (UniProt P52793)
Sequence (P52793 whole entry): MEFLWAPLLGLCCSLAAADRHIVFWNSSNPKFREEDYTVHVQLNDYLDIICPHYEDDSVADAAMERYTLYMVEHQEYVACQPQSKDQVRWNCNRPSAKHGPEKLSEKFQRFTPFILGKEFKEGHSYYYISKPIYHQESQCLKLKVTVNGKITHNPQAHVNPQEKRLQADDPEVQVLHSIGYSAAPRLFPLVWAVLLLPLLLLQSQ

effect of a mutation on the interaction: decreasing interaction
Substance: Ephrin type-A receptor 7 (Homo sapiens), Q15375 T105Q
